Reference: publication PMC6440994, “Human RAD51 paralogue SWSAP1 fosters RAD51 filament by regulating the anti-recombinase FIGNL1 AAA+ ATPase” (Nature Communications, 2019)

Biological target: T1, RAD51 (protein of the in vitro assays) (UniProt Q06609 1-339)
T1 sequence (looked up): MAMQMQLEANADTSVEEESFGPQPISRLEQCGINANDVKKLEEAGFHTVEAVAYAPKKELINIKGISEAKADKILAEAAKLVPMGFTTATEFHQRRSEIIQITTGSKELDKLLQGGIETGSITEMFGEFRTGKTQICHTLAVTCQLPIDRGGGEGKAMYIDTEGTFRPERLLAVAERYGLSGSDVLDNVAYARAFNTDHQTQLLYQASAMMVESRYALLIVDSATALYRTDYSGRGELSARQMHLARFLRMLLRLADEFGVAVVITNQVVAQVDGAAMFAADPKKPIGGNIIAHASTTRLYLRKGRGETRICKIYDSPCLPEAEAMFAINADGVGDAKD
Experiment: cell-based or functional assay

B1: FIGNL1ΔN-EE (F295E, A298E) (domain or fragment, human, UniProt Q6PIW4 285-674, looked up)
chain: GPKEDSSLPTEKTEKEQLWVDQQKKYHQPQRASGSSYGGVKKSLGASRSRGILGKFVPPIPKQDGGEQNGGMQCKPYGAGPTEPAHPVDERLKNLEPKMIELIMNEIMDHGPPVNWEDIAGVEFAKATIKEIVVWPMLRPDIFTGLRGPPKGILLFGPPGTGKTLIGKCIASQSGATFFSISASSLTSKWVGEGEKMVRALFAVARCQQPAVIFIDEIDSLLSQRGDGEHESSRRIKTEFLVQLDGATTSSEDRILVVGATNRPQEIDEAARRRLVKRLYIPLPEASARKQIVINLMSKEQCCLSEEEIEQIVQQSDAFSGADMTQLCREASLGPIRSLQTADIATITPDQVRPIAYIDFENAFRTVRPSVSPKDLELYENWNKTFGCGK
activity to dissociate RAD51 from ssDNA relative to wild-type FIGNL1ΔN (0.2 µM protein): 3.2 fold decrease
